These results are taken from the supplement of paper PMC12042874.

The data set can be described thus: amyloid nucleation score (Sup35N fusion, yeast selection) (log enrichment); library NNK2; higher = more nucleation; inactive = no reads after selection. An outline of the steps: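 In psi-negative yeast, Sup35N fusions carrying peptides of 20 random codons were induced with 100 μM copper sulfate for 24 hours. The cells then grew 7 days at 30°C on medium lacking adenine and uracil, and plasmid inserts from input and output were Illumina-sequenced, excluding sequences with under 100 input reads. Nucleation score is the DiMSum log enrichment of output over input reads, centred on the mode score of non-aggregating sequences.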

± gives the uncertainty stated by the source.

LLAFHCGHQMCFGVINMSTG yielded an amyloid nucleation score of 3.83 ± 0.065.

MKFVNINGAICSVRHPSVRT: the amyloid nucleation score was 0.089 ± 0.79.

Regarding SNSCTPAGLETGNLK, the amyloid nucleation score entry was “inactive”. In the case of GSYCCLVKFMKFFSSLGHQF, the amyloid nucleation score is -1.29 ± 1. To VTFNALLGFLASICVITSRI belongs 3.16 ± 0.072. To VSVDSVDAIFRK belongs 0.489 ± 0.64; to ILISLESSPISGMKCVLQRF, 2.85 ± 0.12; to LKSSNRGNVRKRLLGEDEGT, 0.245 ± 0.37. The result for VAVLKGVGDSPNLAGDSKWD reads 0.355 ± 0.56; that for ISLSIWQPRNSDGWKQEPAP, 2.41 ± 0.24; that for VNSDYMGIGL, -0.272 ± 1.1.

Turning to ISFIDHYVY, the amyloid nucleation score entry was “inactive”. To RSYVHYGLLAWCYIRVSWDP belongs 0.428 ± 0.44.

As to LQCLSRASGHCPGRSTFWHF, the amyloid nucleation score turned out to be 1.02 ± 0.27.

For HVAWGHFLLIHIFHVNYGYL, the amyloid nucleation score was -0.627 ± 1.1.

The substance VYQIRKV showed an amyloid nucleation score of -0.523 ± 0.33. The result for SNIGCRKIWTSLRSMDLIIG reads -0.006 ± 0.65; that for WVELVCPYSTYLLSFIASLS, 0.278 ± 0.54; that for DCLNRLY, 0.138 ± 0.76. The result for KKSYFTSLTLLFMTPFSLSY reads “inactive”.

On to RLWCLRSTNEMAVSCYRSWD, for which the amyloid nucleation score stood at 4.47 ± 0.049. The result for GFKAMRCLWSGVARSIVRDS reads -0.242 ± 0.49; that for ISVRVFNRNT, 3.15 ± 0.078. The result for WRVATCCAGRTIIQLETRFG reads 8.805 ± 0.058.

With RVPTVLFFLIVDFSCPPFSC, the amyloid nucleation score result was “inactive”. To RLNYA belongs 0.772 ± 0.81; to FYIMFLVRCYKDEPSTRANL, -0.796 ± 0.62; to GPKPGDVSYVYKSCRTHNSP, 0.53 ± 0.29. To VYISSSFDFWMFVNFIDDTL belongs -0.511 ± 0.43. To SFIVRQGPTHKFVSECS belongs -0.887 ± 0.54. In the case of FCSSSVIYQKKLA, the amyloid nucleation score is -0.782 ± 0.24. CVYWWASGE: the amyloid nucleation score entry is “inactive”.

TYSVGSSYCLRRSFGAGFFS returned an amyloid nucleation score of 0.728 ± 0.25.

Substance YVMSAVFYSVRFVAIETCKV returned an amyloid nucleation score of 0.155 ± 0.57.

For the substance ALVVLFTCGCSGMLVYNAWS, the amyloid nucleation score worked out at 0.841 ± 0.13. To LNLFFLCGYPYYRNVGCMGH belongs 7.195 ± 0.067; to TCARFVGMEM, 1.22 ± 0.27; to CGMFWLSRYEFYRISSCRRL, 1.3 ± 0.14. The result for HSALWRLWEPAQP reads 0.552 ± 0.64; that for HKLTRRKWNCLRNWKLNLHQ, -0.953 ± 0.54. The result for IIACLTVNYCTGRCATLMFP reads 6.365 ± 0.036; that for YNLYHSCLDQRTYHSGKFSI, 2.3 ± 0.14; that for NSVFAGRRTRTSFP, 0.227 ± 0.62. In the case of RRRIWATM, the amyloid nucleation score was -0.12 ± 0.31. To GMGQTRKCHAGGNWHVYSCR belongs 0.738 ± 0.47; to LFRQEAMIPL, 0.594 ± 0.66; to SYYELGNDLSACYFYCHRVA, -0.253 ± 0.79. In the case of EVWYTGYVCLWMYIAWINID, the amyloid nucleation score result was “inactive”. The result for NWLSMWLWFVCMSLVCMVFR reads 1.77 ± 0.16; that for IFDYSV, -0.874 ± 0.55. To KMIVLK belongs 0.449 ± 0.41. The result for QTRRIRYDWDAPQCGWVVTM reads 3.82 ± 0.079; that for SFLDYRSLTVMFVAGQSTVR, -0.645 ± 0.53; that for IQVRRITG, 0.089 ± 0.29. With LTRVNWCLPKAGSLKQF, the amyloid nucleation score is -0.06 ± 0.79.

Take VSTRILSCSNEFCYIIGAMV: the amyloid nucleation score turned out to be 2.59 ± 0.15. To LKCRVITQSCIPSSINRLDG belongs -0.02 ± 0.22; to INFLNWFNLFDGYMFSLSAY, “inactive”; to CPEDVAEFMCRALFRSISIG, 0.45 ± 0.74. Take NCFKECVVPHR: the amyloid nucleation score was -0.043 ± 0.37. To TQFISFRYYHNVDEIHYVVN belongs “inactive”; to RSDMH, 0.673 ± 0.44. The result for ITWGFNVFMFVVPSWS reads 8.67 ± 0.035; that for YIPIYMGWTGRNRTVMH, “inactive”; that for YFLLVVCGWHGFIIESLLRF, “inactive”.

For the substance PYWFRFLSYVQMLEYFCAPV, the amyloid nucleation score was -0.764 ± 0.36. The result for SPALKPLGRMEYGVSGR reads 0.072 ± 0.29; that for YRVFRFCNMASYLVSICHNG, -1.2 ± 0.64; that for LYRLGFEAHRVYKQLKIIGG, 0.764 ± 0.4. The result for RWFIDYHGSVFCFQKYIPPV reads -0.526 ± 0.54; that for AVNSNDTRDGRCGVIAI, 0.057 ± 0.31; that for ISIFFVMLLMYRMFGYVECA, 0.856 ± 0.5.

Consider AFYGL, for which the amyloid nucleation score result is “inactive”. The result for NDKVFYGRFSFHHVGHWCRV reads -0.506 ± 0.41.

Consider SWGYNRF, for which the amyloid nucleation score entry is “inactive”. To VTALYGSSICMSRSDY belongs 0.119 ± 0.47; to LWSFKYFSVCYNLWTIMKGG, “inactive”; to YSFCWLYNYPFIFYGFAFED, 5.951 ± 0.056. Substance CVVEQALLLWN had an amyloid nucleation score of -0.243 ± 0.79. To GLYEYPHGKTIMVDWMAGRL belongs 1.17 ± 0.28.

In the case of IDAELLGWFFPEDGFHFSAV, the amyloid nucleation score is -1.32 ± 1.1. To QIIVLALMMWMGCRRRMERK belongs 0.414 ± 0.65; to TNSMNGFFFR, -1.81 ± 1; to FLLRHSSCEVIGC, 0.665 ± 0.36.

Take WFPRSNAYLCMCFFVLREYQ: the amyloid nucleation score stood at 0.428 ± 0.66. The result for SGLPMYCSYRYHSRLGNTYR reads 2.92 ± 0.064; that for TFWLIRTSHRGYRYEKVCTY, -0.017 ± 0.49. To VRTWCAFYTVIRGWYRLLGS belongs 0.231 ± 0.5. The substance FLNNVVYRHCDSYLTGNCRN registered an amyloid nucleation score of 5.151 ± 0.041. To NDRHLRWPFCPCYQVRLCIT belongs “inactive”; to TSVNALFRWPRLFSYRREPV, 0.202 ± 0.79; to PLDGEIRREHVLAYEE, -0.454 ± 0.48. To SPRRFLMKQGIHQVTLAHCH belongs -0.342 ± 0.76; to LSAVVTSFKVTN, 0.523 ± 0.64. The result for YGFPDF reads -1.12 ± 1.1; that for FLDGAYSWLWLGSYIRGLSH, -0.262 ± 0.56; that for QVIDTSPRHVMVIYVP, -0.307 ± 0.76. EVTILVGKGERLKRTYCSR came in with an amyloid nucleation score of 0.329 ± 0.2. The result for LRFASSNKLVGLD reads “inactive”. Turning to QLRVYEKFKWCQREWRMDRF, the amyloid nucleation score was determined as 4.623 ± 0.034. To LIRGVII belongs 0.21 ± 0.54. To TNCSIMGTFSYFNDCSLGGT belongs 5.247 ± 0.051; to WKQLSSWIAIDSLRARKTLS, -0.405 ± 0.42; to YFILKFVQTGGNS, 4.12 ± 0.041.

Turning to VCELGRRWDLRSVLSC, the amyloid nucleation score came to 0.624 ± 0.42. To FMITQSFSGT belongs -1.05 ± 0.41; to YHWWDLLLTLREPVRWRIQP, 1.55 ± 0.23; to WYMLLRESPGSCPVGDEQGR, 0.923 ± 0.81.

With QLWMTQTRTPSSKIRSKP, the amyloid nucleation score stood at 0.641 ± 0.74. To LRFVVMVHLE belongs -0.072 ± 0.79. The result for HSLKNYSGYLLLRTNRCI reads 0.135 ± 0.65; that for FLVLVWSRCSNLFL, 2.86 ± 0.14.

Take SNMASIFTPKRSFNSEVENQ: the amyloid nucleation score was -1.31 ± 0.61. To ESQWYVIDGAPFPTSGVLMS belongs 0.013 ± 0.35. To HYMSAHGRRRLKPQVFYT belongs “inactive”; to LNSQSLVAYMRAFVKDSPCR, 0.007 ± 1.1. The result for RWLRPRSFWMDVVGSKI reads 1.83 ± 0.11; that for FDDRMCLCTIKQSK, -1 ± 0.78. For the substance SVCSKSGNFYGVVNMGL, the amyloid nucleation score was -0.161 ± 0.79. The substance SDNMFSWRCLKDTWLDRRWA yielded an amyloid nucleation score of 0.294 ± 0.22. The result for RDSVIYCCMMMKGTCAWLYL reads “inactive”; that for VGGWSLYSSPVLLRIWFKRH, 0.087 ± 0.79; that for ILWCFRSVMA, -0.327 ± 0.28. For IMSNGDRNAYYVKLHES, the amyloid nucleation score amounted to 0.123 ± 0.33. The result for MSGEDSGCLWDCNVYSRLDV reads -0.486 ± 0.74; that for VLSMDLQVIRSWKICSVSRK, 0.799 ± 0.17; that for FRSGRWRNGALSWHALATL, 0.658 ± 0.52.

Turning to AFFKR, the amyloid nucleation score amounted to 0.182 ± 0.38. To LITIAIAARCSRMIGLQLFL belongs -0.495 ± 0.32; to TTSVTGQC, -1.09 ± 0.55; to IYTLL, -0.228 ± 1.1. To TNSDSSTQKVIVMSLNAVVP belongs 6.11 ± 0.049; to MYLRYSFLIISCELGDLNSL, “inactive”. To QVWFYIVVMLVTLTGLGQVG belongs 1.16 ± 0.61; to TLYRPMTIMFMRVHHEVRWF, 6.195 ± 0.04. The substance LGPEYTWQI returned an amyloid nucleation score of 0.548 ± 0.42. To CVHIKEVLAWLDRCGLGYVW belongs 0.662 ± 0.81; to TVFFF, 2.6 ± 0.11. The result for YGALYTVRMEN reads -0.482 ± 0.49.
